# Laboratory results published in patent US20080027001A1, “NOGO RECEPTOR FUNCTIONAL MOTIFS, PEPTIDE MIMETICS, AND MUTATED FUNCTIONAL MOTIFS RELATED THERETO, AND METHODS OF USING THE SAME” (priority 2006, published 2008).
# Target: human p75 neurotrophin receptor (p75NTR) expressed in CHO-K1 cells (human) (UniProt P08138)
# Assay: AP fusion protein on CHO-K1 cells expressing cell-surface human p75NTR, fluorescent AP substrate
# Sequence of human p75 neurotrophin receptor (p75NTR) expressed in CHO-K1 cells (human) (P08138 29-427): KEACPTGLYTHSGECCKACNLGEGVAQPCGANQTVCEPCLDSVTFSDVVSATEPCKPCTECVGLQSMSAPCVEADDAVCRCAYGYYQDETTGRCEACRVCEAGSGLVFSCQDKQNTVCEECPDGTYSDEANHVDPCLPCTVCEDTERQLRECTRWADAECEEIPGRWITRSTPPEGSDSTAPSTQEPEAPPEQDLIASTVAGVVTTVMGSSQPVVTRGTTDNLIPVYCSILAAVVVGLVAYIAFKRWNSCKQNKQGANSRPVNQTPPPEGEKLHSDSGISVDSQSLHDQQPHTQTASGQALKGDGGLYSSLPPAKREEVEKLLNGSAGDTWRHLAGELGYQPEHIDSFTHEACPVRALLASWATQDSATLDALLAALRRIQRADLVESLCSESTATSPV
substance,measurement,value
NgR-AP,fold bound against mock-transfected control cells,5 fold
